In experiment [1] the target is full-length human TIGIT on the cell membrane (human) (UniProt Q495A1). The experiment can be described thus: cell-based or functional assay.
Experiment [2] deals with T1, recombinant human TIGIT (Human TIGIT His, Sino Biological, 10917-H08H) (human, UniProt Q495A1 22-138).
T1 construct: range 1-138; Bought reagent; also called recombinant human TIGIT antigen; recombinant human TIGITE-HIS; not shown: C-terminal histidine tag
T1 sequence (looked up): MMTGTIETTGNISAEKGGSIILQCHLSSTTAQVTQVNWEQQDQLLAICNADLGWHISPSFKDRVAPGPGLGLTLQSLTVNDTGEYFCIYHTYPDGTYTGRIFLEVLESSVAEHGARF
Description: ELISA, recombinant human TIGIT-His coated. On the procedure:
The activity of TIGIT antibody-IL2 fusion protein binding TIGIT of the present disclosure in vitro was detected using ELISA. The ELIS was conducted as follows: coated with 50 μl of NaHCO₃(pH9.6) buffer containing […] recombinant human TIGITE-HIS overnight at 4° C.; on the next day, washed twice with PBS, followed by blocking with 3% BSA, 100 μL per well; incubated at 37° C. for 1.5h, and washed with PBST for 4 times. TIGIT antibody-IL2 fusion protein was diluted in a gradient with a binding solution (TBST containing 1% BSA), and added into the blocked and washed ELISA plate (50 μl per well), and incubated at 37° C. for 2 h. After washing with PBST for 4 times, a certain proportion of diluted anti-HFC (Jackson Immuno Research) labeled with alkaline phosphatase was added to each well and incubated at 37° C. for 1.5h. Finally, after washing with PBST for 4 times, PNPP color developing solution was added and incubated at 37° C. for 10-15 min, followed by reading on a microplate reader (wavelengths 405 nm and 490 nm). Human TIGIT monoclonal antibody P03479 was used as positive control.
A general note: ELISA stands for enzyme-linked immunosorbent assay.

The target of experiment [3] is T2, full-length human TIGIT on the cell membrane (human, UniProt Q495A1 22-244).
T2 construct: whole, on cells; the cell is named under assay or readout; also called CHO-K-TIGIT; CHO-TIGIT
T2 sequence (looked up): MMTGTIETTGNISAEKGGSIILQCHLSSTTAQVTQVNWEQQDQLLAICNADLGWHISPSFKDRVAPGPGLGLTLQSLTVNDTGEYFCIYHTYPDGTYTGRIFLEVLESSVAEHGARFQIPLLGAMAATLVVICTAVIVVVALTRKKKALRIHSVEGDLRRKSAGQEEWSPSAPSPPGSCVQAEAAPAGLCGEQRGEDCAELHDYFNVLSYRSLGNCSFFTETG
Description: flow cytometry on CHO-K cells expressing human TIGIT. The protocol: The flow cytometry method to study the binding of TIGIT antibodies to TIGIT protein on the cell membrane is briefly described as follows: Firstly, FACS buffer was prepared, which was a 1×PBS solution with 0.5% BSA. The required number of CHO-K-TIGIT cells, approximately 1×10⁵ to 5×10⁵ cells per sample, was taken and suspended in FACS buffer. […] The cells were incubated in a refrigerator at 4° C. for 30 minutes, washed once with FACS buffer, and then resuspended in FITC-conjugated anti-human IgG (Abcam: 6854) diluted in FACS buffer. The cells were incubated again in a refrigerator at 4° C. for 30 minutes. Finally, after washing the cells with FACS buffer, the cells were resuspended in 200 μL of FACS buffer for analysis, and subjected to detection.

The target of the next experiment is T3, mouse TIGIT (mouse, UniProt P86176 29-148, limits assumed).
T3 sequence (looked up): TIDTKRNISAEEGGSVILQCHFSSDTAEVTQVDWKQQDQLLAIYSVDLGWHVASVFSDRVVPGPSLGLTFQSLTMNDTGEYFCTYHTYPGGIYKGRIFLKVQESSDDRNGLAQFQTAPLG
Description: not described.

Experiment [4] addresses T1, recombinant human TIGIT (Human TIGIT …). Description: competition ELISA, TIGIT-His coated, competitor CD155-mFC. On the procedure:
To determine whether human-mouse chimeric and humanized TIGIT monoclonal antibodies can inhibit the binding between CD155 and TIGIT, an in vitro ELISA assay was conducted. Tiragolumab was used as a positive control. […] The next day, after washing twice with PBS, the wells were blocked with 3% BSA, 100 μL per well, and incubated at 37° C. for 1.5 hours, followed by washing 4 times with PBST. Gradient diluted TIGIT monoclonal antibodies and CD155-mFC (6 μg/mL) (Human CD155 (Fc Tag): Sino Biological, 10109-H02H) were mixed in equal volumes and added to the blocked and washed microplate and incubated at 37° C. for 2 hours, followed by 4 washes with PBST. Subsequently, a diluted secondary antibody HRP-conjugated anti-mFC (Jackson Immuno Research, 115-035-164) was added and incubated at 37° C. for 1.5 hours. After washing 4 times with PBST, TMB coloring solution was added, and the plate was incubated at 37° C. for 10-15 minutes before reading on a microplate reader (wavelengths 450 nm and 655 nm).
As shown, all TIGIT monoclonal antibodies could specifically block the binding between TIGIT and CD155.

Experiment [5] deals with T2, full-length human TIGIT on the cell …. Description: flow cytometry on Jurkat cells expressing human TIGIT. On the procedure: The binding activity of the anti-TIGIT antibody-IL2 fusion proteins to TIGIT on the cell membrane was tested using flow cytometry. A Jurkat cell line stably expressing human TIGIT was first established. The full-length human TIGIT gene (Sinobio) was amplified by PCR and cloned into the mammalian cell expression vector pcDNA3.1 (Invitrogen), using Not I and Xba I as cloning enzymes. The TIGIT expression plasmid was transfected into Jurkat cells to construct a stable Jurkat cell line expressing TIGIT (TIGIT-Jurkat).
The flow cytometry study method for the binding of TIGIT antibody-IL2 fusion proteins to cell membrane-bound TIGIT is summarized as follows: FACS buffer (1×PBS+0.5% BSA solution) was prepared. The required number of TIGIT-Jurkat cells, about 1×10⁵ to 5×10⁵ cells per sample, was taken and incubated with TIGIT antibody-IL2 fusion protein diluted to a certain ratio in FACS buffer, approximately 100 μL, at 4° C. for 30 minutes. After washing the cells once with FACS buffer, they were resuspended in FITC-conjugated anti-human IgG (Abcam: 6854) diluted in FACS buffer and incubated at 4° C. for 30 minutes. Finally, after washing the cells with FACS buffer, they were resuspended in 200 μL of FACS buffer for analysis. The parent TIGIT antibody P03479 was used as a control.
The results were consistent with those obtained by binding recombinant TIGIT in vitro (Example 6).
Background: In flow cytometry, cells or beads pass a laser one at a time.

Experiment [6] concerns the target T4, IL2Rαγ (dimer) on 293F cells (human, UniProt P01589 22-272; P31785 23-369).
T4 construct: whole, on cells
T4 sequence (looked up) 1: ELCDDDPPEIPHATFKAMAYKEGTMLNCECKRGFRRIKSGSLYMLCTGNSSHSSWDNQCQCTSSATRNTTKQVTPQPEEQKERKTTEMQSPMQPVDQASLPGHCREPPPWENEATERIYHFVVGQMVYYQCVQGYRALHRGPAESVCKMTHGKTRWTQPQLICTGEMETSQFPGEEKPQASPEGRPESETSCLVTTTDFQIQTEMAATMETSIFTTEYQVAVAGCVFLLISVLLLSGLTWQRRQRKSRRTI
T4 sequence (looked up) 2: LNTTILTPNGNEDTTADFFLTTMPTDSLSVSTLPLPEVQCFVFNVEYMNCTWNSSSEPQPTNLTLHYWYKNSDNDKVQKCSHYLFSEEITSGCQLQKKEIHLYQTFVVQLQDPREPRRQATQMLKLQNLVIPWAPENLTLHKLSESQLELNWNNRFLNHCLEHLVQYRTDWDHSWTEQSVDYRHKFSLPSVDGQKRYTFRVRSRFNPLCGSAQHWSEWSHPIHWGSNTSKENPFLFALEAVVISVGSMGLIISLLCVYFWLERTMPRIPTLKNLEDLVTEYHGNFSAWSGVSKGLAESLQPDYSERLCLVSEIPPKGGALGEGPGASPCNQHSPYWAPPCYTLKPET
The experiment can be described thus: flow cytometry on 293F cells expressing IL2Rαγ. From the text:
First, human IL2Rα, IL2Rβ, and IL2Rγ expression plasmids (Sinobio) were co-transfected into 293F cells to transiently express the following IL2R complexes: IL2Rαβγ (trimer), IL2Rαγ (dimer), and IL2Rβγ (dimer). The expression of the respective IL2R subunits on the cell membrane was detected using antibodies against IL2Rα, IL2Rβ, and IL2Rγ.
Then, the binding activity of KD5201F, KD5201E, and control protein-1 to the 293F cells expressing the two types of IL2R complexes (αγ and βγ) was detected using flow cytometry.

For experiment [7], the target named is T5, mouse IL2R on CTLL-2 cells (mouse, UniProt P01590 22-268).
T5 sequence (looked up): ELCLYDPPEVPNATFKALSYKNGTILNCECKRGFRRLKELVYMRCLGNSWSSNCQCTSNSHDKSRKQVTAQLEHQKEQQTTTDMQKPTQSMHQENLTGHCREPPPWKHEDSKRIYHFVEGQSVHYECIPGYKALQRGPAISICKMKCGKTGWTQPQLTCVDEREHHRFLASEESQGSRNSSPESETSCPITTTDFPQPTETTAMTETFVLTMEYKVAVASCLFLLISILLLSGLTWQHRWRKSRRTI
The experiment can be described thus: cell-based or functional assay.

Experiment [8] deals with T6, recombinant IL2Rβ subunit (Sinobio) (UniProt P14784 27-239).
T6 construct: also called IL2β subunit
T6 sequence (looked up): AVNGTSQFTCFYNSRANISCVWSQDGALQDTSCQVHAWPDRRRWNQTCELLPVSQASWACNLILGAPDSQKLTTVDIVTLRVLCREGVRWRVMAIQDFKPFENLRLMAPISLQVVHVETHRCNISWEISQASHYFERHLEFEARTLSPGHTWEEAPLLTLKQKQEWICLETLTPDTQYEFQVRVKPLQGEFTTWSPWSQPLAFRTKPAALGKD
Description: BLI, recombinant IL2Rβ subunit. (In general: BLI is a label-free optical method that tracks binding on a fibre tip over time.)

Results on three molecules are retold here after patent publication US20250333507A1 (SHANGHAI CELGEN BIO PHARMACEUTICAL, published 2025).

Regarding Tiragolumab (antibody), the IFNγ release from PHA-activated PBMCs, increase over the blank in experiment [1] amounted to 16%.

B1: humanized anti-human TIGIT monoclonal antibody P03479 (7103-07 huVH2VL1) (antibody, V domains shown)
VH: EVQVVESGGGLVKPGGSLRLSCAASGFTFSTYAMSWVRQAPGKGLEWVAEISSGGSHTFYADTVKGRFTISRDNAKNTLYLQMNSLRAEDTAVYYCARKTLDYYALDYWGQGTTVTVSS
VL: DVQITQSPSYLSASVGDRVTINCRASKSISKYLAWYQQKPGKAPKLLIYSGSRLQSGIPSRFSGSGYGTDFTLTISSLQPEDFATYYCQQHNEYPWTFGGGTKLEIK
notes: The constant region is described as IgG1 gamma in the embodiments; also called parent TIGIT antibody P03479
As usually defined, the EC50 is the concentration that produces a half-maximal response. The term IC50 denotes the midpoint of a concentration-inhibition curve. For B1, the EC50 stood at 0.0184 µg/mL in experiment [2], 0.144 µg/mL in experiment [3] and 0.0315 µg/mL in [5]. For the same molecule, the binding result with mouse TIGIT is on record as “no binding”. In experiment [4], the IC50 was found to be 0.107 µg/mL.

B2: KD5201E, HC(DANG)-IL2mut-1/LC(ART-Ig) anti-TIGIT antibody-IL2 fusion protein (other)
heavy 1: EVQVVESGGGLVKPGGSLRLSCAASGFTFSTYAMSWVRQAPGKGLEWVAEISSGGSHTFYADTVKGRFTISRDNAKNTLYLQMNSLRAEDTAVYYCARKTLDYYALDYWGQGTTVTVSSASTKGPSVFPLAPSSKSTSGGTAALGCLVKDYFPEPVTVSWNSGALTSGVHTFPAVLQSSGLYSLSSVVTVPSSSLGTQTYICNVNHKPSNTKVDKKVEPKSCDKTHTCPPCPAPELLGGPSVFLFPPKPKDTLMISRTPEVTCVVVAVSHEDPEVKFNWYVDGVEVHNAKTKPREEQYGSTYRVVSVLTVLHQDWLNGKEYKCKVSNKALPAPIEKTISKAKGQPREPQVYTLPPSRKEMTKNQVSLTCLVKGFYPSDIAVEWESNGQPENNYKTTPPVLDSDGSFFLYSKLTVDKSRWQQGNVFSCSVMHEALHNRYTQKSLSLSPGGGGGSGGGGSGGGGSAPTSSSTKKTQLQLEHLLLDLQMILNGINNYKNPKLTRMLTAKFYMPKKATELKHLQCLEEELKPLEEVLNLAQSKNFHFDPRDVVSNINVFVLELKGSETTFMCEYADETATIVEFLNRWITFCQSIISTLT
heavy 2: EVQVVESGGGLVKPGGSLRLSCAASGFTFSTYAMSWVRQAPGKGLEWVAEISSGGSHTFYADTVKGRFTISRDNAKNTLYLQMNSLRAEDTAVYYCARKTLDYYALDYWGQGTTVTVSSASTKGPSVFPLAPSSKSTSGGTAALGCLVKDYFPEPVTVSWNSGALTSGVHTFPAVLQSSGLYSLSSVVTVPSSSLGTQTYICNVNHKPSNTKVDKKVEPKSCDKTHTCPPCPAPELLGGPSVFLFPPKPKDTLMISRTPEVTCVVVAVSHEDPEVKFNWYVDGVEVHNAKTKPREEQYGSTYRVVSVLTVLHQDWLNGKEYKCKVSNKALPAPIEKTISKAKGQPREPQVYTLPPSREEMTKNQVSLTCLVKGFYPSDIAVEWESNGQPENNYKTTPPVLDSDGSFFLYSKLTVDKSRWQQGNVFSCSVMHEALHNHYTQESLSLSPG
light: DVQITQSPSYLSASVGDRVTINCRASKSISKYLAWYQQKPGKAPKLLIYSGSRLQSGIPSRFSGSGYGTDFTLTISSLQPEDFATYYCQQHNEYPWTFGGGTKLEIKRTVAAPSVFIFPPSDEQLKSGTASVVCLLNNFYPREAKVQWKVDNALQSGNSQESVTEQDSKDSTYSLSSTLTLSKADYEKHKVYACEVTHQGLSSPVTKSFNRGEC
notes: IL2mut-1 = F42A/L80F/R81D/L85V/I86V/I92F on the C-terminus of one heavy chain; Fc with D265A/N297G; also called HC1(DANG)-IL2mut/LC1(ART-Ig); HC1-IL2mut/LC1 (ART-Ig)
What is called Kd is the equilibrium constant for the complex coming apart. For B2, the binding result in experiment [6] is “binds”. The “EC50 of stimulating CTLL-2 cell growth (CCK-8)” value in experiment [7] was found to be 0.0153 µg/mL. The dissociation constant Kd in experiment [8] is about 8.2 nM.
